From patent publication US20130330359A1

Key:
[1] = target: carrier free RGMc (R&D Systems) (human) (UniProt Q6ZVN8); assay: direct EIA: carrier-free RGMc coated at 0.5 ug/mL; sample at 2 ug/ml; goat anti-mouse IgG-HRPO
[2] = target: carrier free RGMa (R&D Systems) (UniProt Q96B86); assay: direct EIA: carrier-free RGMa coated at 0.5 ug/mL; sample at 2 ug/ml; goat anti-mouse IgG-HRPO
[3] = target: carrier free RGMb (R&D Systems) (UniProt Q6NW40); assay: direct EIA: carrier-free RGMb coated at 0.5 ug/mL; sample at 2 ug/ml; goat anti-mouse IgG-HRPO
Chain of carrier free RGMb (R&D Systems) (Q6NW40 46-413 limits assumed): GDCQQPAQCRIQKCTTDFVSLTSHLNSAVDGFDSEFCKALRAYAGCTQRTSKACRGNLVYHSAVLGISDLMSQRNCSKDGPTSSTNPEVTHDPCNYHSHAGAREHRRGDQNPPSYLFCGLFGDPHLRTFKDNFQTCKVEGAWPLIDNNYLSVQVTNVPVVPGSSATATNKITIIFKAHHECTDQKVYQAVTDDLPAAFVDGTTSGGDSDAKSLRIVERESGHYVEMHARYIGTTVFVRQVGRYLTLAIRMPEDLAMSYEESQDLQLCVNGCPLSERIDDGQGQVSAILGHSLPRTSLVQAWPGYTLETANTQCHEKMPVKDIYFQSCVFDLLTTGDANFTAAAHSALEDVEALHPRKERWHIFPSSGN

Chain of carrier free RGMc (R&D Systems) (human) (Q6ZVN8 36-400 limits assumed): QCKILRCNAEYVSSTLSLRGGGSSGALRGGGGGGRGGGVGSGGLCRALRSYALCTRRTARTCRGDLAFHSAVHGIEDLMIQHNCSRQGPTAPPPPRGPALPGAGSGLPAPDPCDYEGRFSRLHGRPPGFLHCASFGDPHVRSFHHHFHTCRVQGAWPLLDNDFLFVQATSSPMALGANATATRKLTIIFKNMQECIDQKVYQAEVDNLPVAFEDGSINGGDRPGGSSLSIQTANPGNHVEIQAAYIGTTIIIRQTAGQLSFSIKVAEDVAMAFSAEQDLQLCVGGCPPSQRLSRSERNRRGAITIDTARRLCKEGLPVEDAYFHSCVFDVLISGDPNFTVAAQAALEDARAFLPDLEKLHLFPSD
Chain of carrier free RGMa (R&D Systems) (Q96B86 48-422 limits assumed): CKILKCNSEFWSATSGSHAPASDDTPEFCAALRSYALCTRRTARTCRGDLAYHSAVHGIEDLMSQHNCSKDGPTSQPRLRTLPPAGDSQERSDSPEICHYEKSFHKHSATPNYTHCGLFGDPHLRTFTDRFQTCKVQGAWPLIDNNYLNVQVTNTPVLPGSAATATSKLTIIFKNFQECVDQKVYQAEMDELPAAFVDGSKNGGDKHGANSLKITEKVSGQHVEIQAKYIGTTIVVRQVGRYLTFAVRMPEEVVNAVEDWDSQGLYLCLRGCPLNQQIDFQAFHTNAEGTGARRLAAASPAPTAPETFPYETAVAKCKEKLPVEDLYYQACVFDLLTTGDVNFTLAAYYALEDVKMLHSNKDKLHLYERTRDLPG

Substance: negative control: purified mouse mAb from an irrelevant / different antigen system (antibody)
- absorbance at 492 nm [1]: 0.14
- absorbance at 492 nm [2]: 0.1
- absorbance at 492 nm [3]: 0.09
